Source: patent publication US20220389097A1 (Genentech, published 2022)
Positions count from the first letter of the chain named. Names may count otherwise. Where no end group is shown, it is not given here.

Experiments:
human TREM2 on cells [1] = biological target: T1, human TREM2 on cells (human, UniProt Q9NZC2 19-230); test: cell-based or functional assay
T1 sequence: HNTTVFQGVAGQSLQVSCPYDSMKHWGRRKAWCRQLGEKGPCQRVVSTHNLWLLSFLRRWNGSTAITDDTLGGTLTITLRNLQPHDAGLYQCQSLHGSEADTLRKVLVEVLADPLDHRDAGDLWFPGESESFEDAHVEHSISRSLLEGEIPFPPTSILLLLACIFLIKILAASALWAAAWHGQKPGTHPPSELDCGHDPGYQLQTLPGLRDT

human TREM2 on cells [2] = biological target: T1, human TREM2 on cells; test: cell-based or functional assay; remark: listed apart in the source
[3] = biological target: T2, TREM2 peptide residues 148 to 165 (human); test: crystal structure of the complex
T2 construct: Peptide of the crystal structures
T2 peptide: ESFEDAHVEHSISRSLLE

[4] = biological target: T3, soluble monomeric human TREM2 (human, UniProt Q9NZC2 19-174, limits assumed); test: SPR (Biacore 8K) at 37 C, mutant IgG captured on anti-human Fab chip, soluble monomeric TREM2 as analyte, off-rate screen
T3 construct: Not the same as shed sTREM2; also called soluble monomeric TREM2
T3 sequence: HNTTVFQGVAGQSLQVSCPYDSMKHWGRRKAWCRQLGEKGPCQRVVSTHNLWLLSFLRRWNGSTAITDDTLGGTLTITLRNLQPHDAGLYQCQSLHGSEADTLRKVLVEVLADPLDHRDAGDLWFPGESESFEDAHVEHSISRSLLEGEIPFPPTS

[5] = biological target: T4, cynomolgus TREM2 stalk antigen (cynomolgus monkey, UniProt A0A2K5UY34 159-204, not fully specified); test: SPR (Biacore T200), 37 C; TREM2 stalk antigen on anti-human IgG1 Fc chip, antibody in solution
T4 construct: domain: stalk
T4 chain: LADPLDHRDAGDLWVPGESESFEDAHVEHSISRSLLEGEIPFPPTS
Method: (§1) Forty-six rat anti-human antibodies were tested for binding affinity to the hTREM2 and cynomolgus TREM2 stalk. Antibody binding affinities for hTREM2 stalk and cynomolgus TREM2 stalk were measured by surface plasmon resonance (SPR) using a Biacore™ T200 apparatus. TREM2 stalk antigens (human or cynomolgus) were immobilized on anti-human IgG1 Fc Biacore™ chips and anti-TREM2 antibody clones were bound to immobilized TREM2 at 37° C. Binding affinities, KD (nM) were measured and recorded.
(§2) Several antibodies were selected for binding measurements against cynomolgus TREM2 stalk. […] These four antibodies are referred to collectively below as the “3.10C2 group” of antibodies.

hTREM2 stalk antigen = biological target: T5, hTREM2 stalk antigen (human, UniProt Q9NZC2 129-174); test: as above
T5 construct: also called human TREM2 stalk
T5 chain: T4 chain with V15F
Method: as §1, §2

139-158 = biological target: T6, 139-158 (biotinylated (site not given)); test: ELISA: biotinylated peptide captured on streptavidin plate, antibody detected with anti-mouse IgG-HRP
T6 construct: member of the group m13
T6 peptide: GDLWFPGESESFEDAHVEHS
From the text: (§3) The antibody epitopes were mapped to the stalk region of human TREM2 using enzyme-linked immunosorbent assay (ELISA). Overlapping biotinylated peptides were captured in ELISA plates coated with streptavidin. The binding of antibodies to peptides was detected with an anti-mouse IgG conjugated to horseradish peroxidase.

[6] = biological target: T7, hTREM2 stalk peptide 149-168 (human, biotinylated); test: as above
T7 peptide: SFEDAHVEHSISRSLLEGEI
From the text: as §3

[7] = biological target: T8, hTREM2 stalk peptide 146-169 (human, biotinylated); test: as above
T8 peptide: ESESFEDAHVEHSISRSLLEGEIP
From the text: as §3

[8] = biological target: T9, hTREM2 stalk peptide residues 129-175 (human, biotinylated); test: as above
T9 construct: also called human TREM2 stalk peptide
T9 peptide: T4 chain with V15F
From the text: as §3

154-164 = biological target: T10, 154-164 (also: biotinylated (site not given here)); test: as above
T10 construct: member of the group m13; also called hTREM2 stalk 154-164
T10 peptide: HVEHSISRSLL
From the text: as §3

155-169 = biological target: T11, 155-169 (also: biotinylated (site not given here)); test: as above
T11 construct: member of the group m13
T11 peptide: VEHSISRSLLEGEIP
From the text: as §3

[9] = biological target: T12, hTREM2 stalk peptide 146-161 (human, also: biotinylated (site not given here)); test: as above
T12 peptide: ESESFEDAHVEHSISR
From the text: as §3

129-148 = biological target: T13, 129-148 (biotinylated (site not given)); test: as above
T13 construct: member of the group m13
T13 peptide: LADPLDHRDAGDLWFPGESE
From the text: as §3

[10] = biological target: T14, hTREM2 stalk peptide 151-165 (human, also: biotinylated (position not given here)); test: as above
T14 peptide: EDAHVEHSISRSLLE
From the text: as §3

159-175 = biological target: T15, 159-175 (also: biotinylated (site not given here)); test: as above
T15 construct: member of the group m13
T15 peptide: ISRSLLEGEIPFPPTSI
From the text: as §3

152-161 = biological target: T16, 152-161 (also: biotinylated (site not given here)); test: as above
T16 construct: member of the group m13
T16 peptide: DAHVEHSISR
From the text: as §3

[11] = biological target: T3, soluble monomeric human TREM2; test: SPR (Biacore 8K); mutant IgG on anti-human Fab chip, soluble monomeric TREM2
From the text: The resulting library consists of individual IgG clones, each with one mutation per molecule in the heavy chain variable regions. Clones were screened for off-rate (dissociation rate) by SPR in a Biacore™ 8K instrument using anti-human Fab chips to capture mutant IgGs and soluble monomeric TREM2 as ligand.

[12] = biological target: T17, soluble human TREM2 (sTREM2) (human, UniProt Q9NZC2 19-157); test: sandwich ELISA: antibody coated as capture, sTREM2 from BMDM supernatant, biotinylated 3.17A9 detection
T17 construct: also called soluble TREM2; TREM2 ectodomain
T17 sequence: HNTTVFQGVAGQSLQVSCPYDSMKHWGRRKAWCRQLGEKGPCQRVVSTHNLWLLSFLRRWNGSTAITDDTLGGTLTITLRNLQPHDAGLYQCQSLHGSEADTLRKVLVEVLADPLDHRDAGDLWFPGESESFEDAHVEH
Method: A human TREM2 ELISA assay was used to measure binding of more than forty antibodies to soluble TREM2 (sTREM2) as follows: test anti-hTREM2 antibodies were coated onto plate wells as capture reagents and a biotinylated IgV-reactive monoclonal antibody, 3.17A9, was used as the detection reagent. Antibody 1.16B8 was used as a control antibody to establish the standard for sTREM2 binding. Plates coated with test or control antibody were incubated with diluted culture supernatant from bone marrow-derived macrophage (BMDM) cultures from transgenic mice expressing hTREM2. sTREM2 is constitutively produced by the BMDM cultures expressing hTREM2 and shed into the culture supernatant. Measurements were recorded at 450 nm for detection and 570 nm for background. The 3.17A9/1.16B8 antibody pair was selected over reagents provided in the R&D Systems kit as the commercial reagents were not compatible with sTREM2 detection of some of the antibodies tested. Control antibody 1.16B8 light chain sequence is shown in SEQ ID NO: 170, and its heavy chain sequence is shown in SEQ ID NO: 171.

B1: hPara.09.v2 Q100P (antibody, V domains shown)
VH: EVQLVESGGGLVQPGGSLKLSCATSGFPFSNVWLHWVRQASGKGPEWVAHIKAKSDNYATYYAESVKGRFTISRDDSKNTVYLQMNSLKTEDTAVYYCTDILEYWGQGTLVTVSS
VL: DVVMTQSPLSLPVTPGEPASISCRSSRSLLTSKGITSLYWYLQKPGQSPQLLIYRMSNLASGIPDRFSGSGSGTDFTLKISRVEAEDVGVYYCAQFLVYPYTFGPGTKVEIK
notes: Human IgG1 N297G in the cell assays; also called huPara.09.v2 Q100P; hPara.09 Q100P
- EC50, Jurkat NFAT luciferase reporter cells (human TREM2 on cells [1]): 0.0178 µg/mL
- IC50, TREM2 shedding inhibition in Jurkat-NFAT reporter cells (sTREM2 ELISA) (human TREM2 on cells [1]): 0.123 µg/mL
- EC50, average X04 plaque intensity, human iPSC-derived microglia plaque assay (FIG. 24C) (human TREM2 on cells [2]): 500 nM
- EC50, survival of iPSC-derived microglia (FIG. 23E) (human TREM2 on cells [2]): 0.61 nM
- EC50, total Abeta plaque intensity, human iPSC-derived microglia plaque assay (FIG. 24B) (human TREM2 on cells [2]): 120 nM
- binding result [3]: binds

B2: h3.10C2.v1 Q100P (antibody, V domains shown)
VH: EVQLVESGGGLVQPGGSLKLSCATSGFPFSNVWMHWVRQASGKGLEWIAHIKAKSDNYATYYAESVKGRFTISRDDSKTTIYLQMNSLKTEDTAVYYCTGLDYWGQGTTVTVSS
VL: B1 VL
notes: also called hu3.10C2.v1 Q100P
- binding result [3]: binds

B3: T93H (antibody, V domains shown)
VH: EVQLVETGGSLVQPGKSLKLTCATSGFPFSNVWMHWVRQSPEKQLEWIAHIKAKSDNYATYYAESVKGRFTISRDDSKTSIYLQMNSLKEDDTAIYYCHGLDYWGQGVMVTVSS
VL: DTVLTQAPLSLSVTPGESASISCRSSKSLLGVRDITSLYWYLQKPGKSPQLLIYRMSNLASGVPDRFSGSGSETDFTLKISEVETEDVGVYYCAQFLRYPYTFGPGTKLELK
- fold improvement (lower dissociation rate kd) relative to wild-type 3.10C2 [4]: 1.4 fold

B4: T93E (antibody, V domains shown)
VH: B3 VH with H99E
VL: B3 VL
- fold improvement (lower dissociation rate kd) relative to wild-type 3.10C2 [4]: 2 fold

B5: 3.50G1 (rat anti-human TREM2 antibody) (antibody, IgG2a, V domains shown)
VH: B3 VH with E90D, H99T
VL: B3 VL with L11V, S26N, V32I, Y41F, K112Q
notes: Whole IgG
- Kd [5]: 0.57 nM
- Kd (hTREM2 stalk antigen): 0.61 nM
- A620 absorbance (ELISA) (139-158): 0.43 A620
- A620 absorbance (ELISA) [6]: 1.28 A620
- A620 absorbance (ELISA) [7]: 1.88 A620
- A620 absorbance (ELISA) [8]: 2.13 A620
- A620 absorbance (ELISA) (154-164): 0.26 A620
- A620 absorbance (ELISA) (155-169): 0.13 A620
- A620 absorbance (ELISA) [9]: 2.52 A620
- A620 absorbance (ELISA) (129-148): 0.19 A620
- A620 absorbance (ELISA) [10]: 2.32 A620
- A620 absorbance (ELISA) (159-175): 0.08 A620
- A620 absorbance (ELISA) (152-161): 0.14 A620

B6: 3.10C2 D101E mutant IgG (antibody, name in Kabat numbering, V domains shown)
VH: B3 VH with H99T, D102E
VL: B3 VL
notes: IgG captured on anti-human Fab chip
- binding result [11]: no binding

B7: control antibody 1.16B8 (antibody, mouse IgG2a, kappa, V domains shown)
VH: EVQLVESGGGLVQPGRSLKLSCAASGFTFSDSAMAWVRQAPKKGLEWVATIIYDTSSTYYRDSVKGRFTISRDNAKSTLYLQMDSLRSEDTATYYCALFGVDVMDAWGQGASVTVSS
VL: DIQMTQTPSSMPASLGERVTISCRASQGISNYLNWYQQKPDGTIKPLIYYTSNLQSGVPSRFSGSGSGTDYSLTISSLEPEDFAMYYCQQYDSSPWTFGGGTKLEIKR
notes: also called CTL; 1.116B8
- binding result [12]: binds
